Data published in patent US20240409638A1 (AVACTA LIFE SCIENCES, published 2024).

Experiments:
[1] = molecular target: T1, human serum albumin (HSA) (human, UniProt P02768 25-609); experiment: SPR (Biacore 8K): HSA amine-coupled on a CM5 chip, AFFIMER as analyte, pH 6.0, 1:1 Langmuir fit
T1 construct: The assays used bought HSA (Sigma #A37812 in the SPR work); also called HuSA
Experimental: For the HSA binding kinetic analysis, HSA (Sigma #A37812) was immobilized on a CM5 chip surface using amine coupling in 10 mM sodium acetate (pH 5.0) (Cytvia). […] The chip surface was regenerated with 3 mM NaOH for 20 seconds at a flow rate of 20 μl/min. The kinetic data was blank subtracted and fit to a 1:1 Langmuir binding model (BIAcore evaluation software; Cytiva).

[2] = molecular target: T2, human PD-L1-Fc (R&D Systems) (human, UniProt Q9NZQ7 19-239); experiment: human PD-L1-Fc binding ELISA: huPD-L1-Fc coated, anti-cystatin A detection, no HSA in the assay buffer
T2 construct: Bought reagent; also called huPD-L1-Fc; huPD-L1; not shown: Fc part of the bought fusion
T2 sequence (Q9NZQ7 19-239 limits assumed): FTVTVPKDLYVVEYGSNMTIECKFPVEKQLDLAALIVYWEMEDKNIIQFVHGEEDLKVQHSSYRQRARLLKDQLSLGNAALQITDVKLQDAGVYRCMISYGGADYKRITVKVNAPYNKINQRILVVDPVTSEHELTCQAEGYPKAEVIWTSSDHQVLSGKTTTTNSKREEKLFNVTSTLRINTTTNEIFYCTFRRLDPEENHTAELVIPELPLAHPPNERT
Experimental: (§1) Plates were washed and AFFIMER® polypeptides were detected using streptavidin-HRP for 30 min. After the last washing step, the TMB substrate was added for the development of the experiment and plates were read at 450 nm. The EC₅₀ was then calculated using the interpolated non-linear four-parameters standard curve.

[3] = molecular target: T3, PD-L1 on cells (NCI-H441 cells; aAPC PD-L1/CHO-K1 cells, Promega) (human, UniProt Q9NZQ7 19-290); experiment: flow cytometry, % positive cells, aAPC PD-L1/CHO-K1 cells (overexpressing PD-L1)
T3 construct: whole, on cells; also called human PD-L1-expressing CHO-K1 cells; H441 cells endogenously expressing PD-L1
T3 sequence (Q9NZQ7 19-290): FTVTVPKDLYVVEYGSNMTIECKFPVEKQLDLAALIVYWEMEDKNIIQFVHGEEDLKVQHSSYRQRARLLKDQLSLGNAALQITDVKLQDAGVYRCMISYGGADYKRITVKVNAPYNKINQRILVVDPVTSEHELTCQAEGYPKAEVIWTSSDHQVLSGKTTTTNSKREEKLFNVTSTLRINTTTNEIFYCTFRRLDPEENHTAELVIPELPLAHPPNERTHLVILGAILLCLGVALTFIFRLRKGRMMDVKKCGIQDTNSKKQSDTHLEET
Experimental: Lung cancer cell line (NCI-H441 (ATCC), CHO-K1 recombinant cell line overexpressing PD-L1 aAPC/CHO-K1 (Promega J1252)) and a negative cell line (CHO-K1, ATCC) were used to assess AFFIMER® agent binding capacity to PD-L1 by flow cytometry.
Briefly, 50 000 cells were added to each well of a 96-well microplate. After this step and each subsequent step, cells were washed twice with PBS+2 mM EDTA using 350g centrifugation for 3 minutes at 4° C. All steps were performed at 4° C. using assay buffer comprising 5% FBS, 2 mM EDTA and 0.05% sodium azide in PBS unless otherwise stated. Independent AFFIMER® agent dilutions were prepared in duplicate and added to the plates. […] Fixation was performed for 10 minutes at 4° C. with Fixation Buffer (Bio-techne FC004). Cells were resuspended in 100 ul assay buffer prior the acquisition of the data. 5000 events were collected by Flow cytometry (Millipore Guava 12HT). The results were gated on live cells and singlets (SSC-H vs SSC-A). The percentage of cells expressing PD-L1 bound by the AFFIMER® agent (positive cells) was determined by using as negative control (background) where the wells were stained with the AF488 conjugated secondary antibody only without AFFIMER® agent. The average of the duplicate wells was used to calculate EC₅₀ using a four-parameter non-linear regression curve fit using Graphpad Prism software. […]

[4] = molecular target: T2, human PD-L1-Fc (R&D Systems); experiment: SPR (Biacore) kinetics: human PD-L1-Fc immobilised on a CM5 chip, AFFIMER as analyte
[5] = molecular target: T1, human serum albumin (HSA); experiment: HSA binding ELISA: HSA coated, bound AFFIMER detected with biotinylated anti-cystatin A antibody and streptavidin-HRP
Experimental: as §1

[6] = molecular target: T2, human PD-L1-Fc (R&D Systems); experiment: SPR (Biacore 8K): human PD-L1-Fc amine-coupled on a CM5 chip, AFFIMER as analyte, 1:1 Langmuir fit
[7] = molecular target: T4, murine serum albumin (MSA) (murine, UniProt P07724 25-608); experiment: SPR, Biacore, MSA amine-coupled on CM5; E. coli-produced format
T4 construct: Bought reagent

[8] = molecular target: T2, human PD-L1-Fc (R&D Systems); experiment: human PD-L1-Fc binding ELISA: huPD-L1-Fc coated, anti-cystatin A detection, with 10 µM HSA in the assay buffer
Experimental: as §1

[9] = molecular target: T2, human PD-L1-Fc (R&D Systems); experiment: SPR (Biacore) kinetics: human PD-L1-Fc immobilised on a CM5 chip, AFFIMER as analyte (column KD (pM), the same fit as the KD (M) column)
[10] = molecular target: T4, murine serum albumin (MSA); experiment: SPR (Biacore): immobilized ligand MSA (Sigma # A3559), AFFIMER as analyte, pH 7.0 by the legend

T1 sequence (P02768 25-609): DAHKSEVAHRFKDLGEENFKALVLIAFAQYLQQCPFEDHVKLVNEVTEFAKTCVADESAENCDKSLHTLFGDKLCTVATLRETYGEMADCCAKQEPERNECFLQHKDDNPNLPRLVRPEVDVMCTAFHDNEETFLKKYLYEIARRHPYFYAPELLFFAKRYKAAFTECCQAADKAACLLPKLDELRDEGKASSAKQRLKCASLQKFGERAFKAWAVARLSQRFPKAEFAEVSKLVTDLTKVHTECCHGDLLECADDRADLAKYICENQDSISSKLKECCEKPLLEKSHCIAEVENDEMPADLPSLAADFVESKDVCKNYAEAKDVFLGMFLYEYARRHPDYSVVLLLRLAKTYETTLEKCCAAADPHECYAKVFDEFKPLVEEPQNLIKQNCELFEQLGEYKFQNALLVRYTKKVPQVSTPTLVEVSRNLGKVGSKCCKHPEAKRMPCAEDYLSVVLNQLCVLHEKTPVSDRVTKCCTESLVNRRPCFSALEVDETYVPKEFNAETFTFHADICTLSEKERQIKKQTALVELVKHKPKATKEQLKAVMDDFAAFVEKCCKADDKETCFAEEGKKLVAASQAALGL

B1: Clone 80 XT35 (anti-PD-L1 type III AFFIMER® XT in-line fusion dimer XT) (designed binder)
chain: MIPGGLSEAKPATPEIQEIVDKVKPQLEEKTGETYGKLEAVQYKTQVVRRKHFPQWPGTNYYIKVRAGDNKYMHLKVFKSLDLQPREVFQEDLVLTGYQVDKNKDDELTGFAEAAAKEAAAKEAAAKEAAAKEAAAKEAAAKMIPGGLSEAKPATPEIQEIVDKVKPQLEEKTGETYGKLEAVQYKTQVVRRKHFPQWPGTNYYIKVRAGDNKYMHLKVFKSLDLQPREVFQEDLVLTGYQVDKNKDDELTGFAEAAAKEAAAKEAAAKEAAAKEAAAKEAAAKMIPRGLSEAKPATPEIQEIVDKVKPQLEEKTNETYGKLEAVQYKTQVLANFFQRRWPGSTNYYIKVRAGDNKYMHLKVFNGPWKFRNTDRGADRVLTGYQVDKNKDDELTGFHHHHHH
notes: Made in E. coli; Two Clone 80 units are fused to one HSA-41; also called XT35_1; ILF trimer format
Kd [1]: 4.44 nM
koff [1]: 0.00302 s⁻¹
kon [1]: 681000 M⁻¹ s⁻¹
EC50 [2]: 0.036 nM
EC50 [3]: 0.036 nM
Kd [4]: 0.0796 nM
koff [4]: 0.000123 s⁻¹
kon [4]: 1.55e+06 M⁻¹ s⁻¹
EC50 [5]: 0.03 nM
Kd [6]: 0.0391 nM
Kd [7]: 269 nM
EC50 [8]: 0.04 nM
Kd [9]: 0.0796 nM
koff [10]: 0.0474 s⁻¹
kon [10]: 176000 M⁻¹ s⁻¹
